Data on 3 molecules can be found in patent US20210238271A1 (Janssen / Centocor, published 2021).

In experiment [1] the target is T1, recombinant human TNFα (human, UniProt P01375 77-233, 125I label in the receptor-blocking assay only). As to the kind of experiment: cell-based or functional assay.
Experiment [2] has as its target T1, recombinant human TNFα. The experiment can be described thus: competition: 125I-TNFα (5 ng/ml) preincubated with hybridoma supernatant, then bound to plate-coated p55-sf2, gamma counting; blocked partner p55-sf2. As to the method: Varying amounts of hybridoma cell supernatants containing known amounts of TNV mAb were preincubated with a fixed concentration (5 ng/ml) of ¹²⁵I-labeled TNFα. […] Although eight TNV mAb samples were tested in these experiments, for simplicity three of the mAbs that were shown by DNA sequence analyses to be identical to one of the other TNV mAbs (see Section 5.2.2) are not shown here. Each sample was tested in duplicate. The results shown are representative of two independent experiments.
(§1) Assay for Inhibition of TNF Binding to Receptor. […] Serial dilutions of the eight TNV cell supernatants were prepared in 96-well round-bottom plates using PBS/0.1% BSA as diluent. […] The mixture was preincubated for one hour at RT. […] After 2 hrs at RT, Optiplates were washed three times with PBS-Tween. […] of Microscint-20 was added and the cpm bound determined using the TopCount gamma counter.
A simple binding assay was done to determine whether the eight TNV mAbs contained in hybridoma cell supernatant were capable of blocking TNFα binding to receptor.

Experiment [3] addresses T1, recombinant human TNFα. The experiment can be described thus: inhibition of 125I-TNFα binding to plate-coated p55-sf2, hybridoma supernatants. As to the method: as §1
A simple binding assay was done to determine whether the eight TNV mAbs contained in hybridoma cell supernatant were capable of blocking TNFα binding to receptor. The concentrations of the TNV mAbs in their respective cell supernatants were first determined by standard ELISA analysis for human IgG.

The target in experiment [4] is T2, human lymphotoxin (human, UniProt P01374 35-205, limits assumed).
T2 sequence (looked up): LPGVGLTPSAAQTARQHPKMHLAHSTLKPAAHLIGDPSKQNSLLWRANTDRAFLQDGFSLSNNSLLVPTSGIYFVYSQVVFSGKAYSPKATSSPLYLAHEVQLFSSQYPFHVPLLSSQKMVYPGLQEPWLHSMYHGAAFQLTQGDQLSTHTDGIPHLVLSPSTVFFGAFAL
As to the kind of experiment: not described.

B1: GenTNV148.26.12 (antibody, human IgG1, kappa, V domains shown)
VH: QVQLVESGGGVVQPGRSLRLSCAASGFIFSSYAMHWVRQAPGNGLEWVAFMSYDGSNKKYADSVKGRFTISRDNPKNTLYLQMNSLRAEDTAVYYCARDRGIAAGGNYYYYGMDVWGQGTTVTVSS
VL: EIVLTQSPATLSLSPGERATLSCRASQSVYSYLAWYQQKPGQAPRLLIYDASNRATGIPARFSGSGSGTDFTLTISSLEPEDFAVYYCQQRSNWPPFTFGPGTKVDIKR
notes: Totally human IgG1 kappa from hybridoma, tested as hybridoma supernatant; also called C420A
Consider B1, for which, in experiment [1], the “neutralizing TNFα bioactivity” value is 4 fold. In experiment [2], the “IC50 (read off the curve)” value is ~4 ng/mL. In addition, the “fold better at blocking TNF binding than TNV118 and TNV14” value in experiment [3] was ~4 fold.

B2: GenTNV86.14.34 (antibody, human IgG1, kappa, V domains shown)
VH: QVQLVESGGGVVQPGRSLRLSCAASGFIFSSYAMHWVRQAPGNGLEWVAFMSYDGSNKKYADSVKGRFTISRDNPKNTLYLQMNSLRAEDTAVYYCARDRGIAAGGNYYYYGMDVWGQGTTVTVSS
VL: EIVLTQSPATLSLSPGERATLSCRASQSVYSYLAWYQQKPGQAPRLLIYDASNRATGIPARFSGSGSGTDFTLTISSLEPEDFAVYYCQQRSNWPPFTFGPGTKVDIKR
notes: Totally human IgG1 kappa from hybridoma, tested as hybridoma supernatant; Only the variable regions were compared; also called C417A
For B2, in experiment [3], the “fold better at blocking TNF binding than TNV118 and TNV14” value was ~4 fold.

B3: golimumab (antibody, human IgG1, kappa, V domains shown)
VH: QVQLVESGGGVVQPGRSLRLSCAASGFIFSSYAMHWVRQAPGNGLEWVAFMSYDGSNKKYADSVKGRFTISRDNSKNTLYLQMNSLRAEDTAVYYCARDRGIAAGGNYYYYGMDVWGQGTTVTVSS
VL: EIVLTQSPATLSLSPGERATLSCRASQSVYSYLAWYQQKPGQAPRLLIYDASNRATGIPARFSGSGSGTDFTLTISSLEPEDFAVYYCQQRSNWPPFTFGPGTKVDIKR
notes: Fully human IgG1 (G1m[z] allotype), kappa; also called SIMPONI
For the molecule B3, the binding result in experiment [4] was “no binding”.
